Broadly, the Kd is the equilibrium constant for the complex coming apart. Read a high Kd as weaker binding.

The values that follow come from patent US20260015316.

The test system of this series is ONECUT2 (OC2) HOX domain. The series can be described thus: SPR. The settings on record: OC2 HOX fragment; DNA probe sequence not given.

In turn, PEG10 promoter OC2 binding motif probe returned a Kd of 1 nM.
